Results from the Human Domainome abundance scans (Beltran et al. 2025).
± gives the uncertainty stated by the source.

B1: Formin-binding protein 4, residues 593 to 636; numbered along this chain, Q8N3X1 (parent)
chain: EINATPKGWSCHWDRDHRRYFYVNEQSGESQWEFPDGEEEEEES

Variants of: B1
Experiment: abundance fitness (aPCA) (normalised: wild type 0, dead -1); higher = more abundant; growth selection in yeast, the domain comes from the species named
Conditions: Homo sapiens
EINATPKGWSCGWDRDHRRYFYVNEQSGESQWEFPDGEEEEEES gave an abundance fitness of -0.379 ± 0.075. Variant EINATPKGWSCYWDRDHRRYFYVNEQSGESQWEFPDGEEEEEES has an abundance fitness of -0.227 ± 0.15. EINATPKGWSCHWDRDHRRYFYVNEQSGESQWEFLDGEEEEEES gave an abundance fitness of -0.801 ± 0.076. With EINATPKGWSCHWDRDHRRYFYVNEQSGESQWEFVDGEEEEEES the abundance fitness was -0.583 ± 0.071. For EINATPKGWSCHWDRDHRRYFYVNEQSGESQWEFNDGEEEEEES, the abundance fitness was -0.74 ± 0.11. In the case of EINATPKGWSCHWDRDHRRYFYVNEQSGESQWEFADGEEEEEES, the abundance fitness is reported as -0.455 ± 0.066. EINATPKGWSCHWDRDHRRYFYVNEQSGESQWEFPDGHEEEEES showed an abundance fitness of -0.2 ± 0.12. Work on EINATPKGWSCHWDRDHRRYFYVNEQSGESQWEFPDGCEEEEES yielded an abundance fitness of -0.047 ± 0.071. In the case of EINATPKGWSCHWDRDHRRYFYVNELSGESQWEFPDGEEEEEES, the abundance fitness is reported as -0.137 ± 0.083. Variant EINATPKGWSCHWDRDHRRYFYVNEKSGESQWEFPDGEEEEEES has an abundance fitness of 0.18 ± 0.11. With EINATPKGWSCHWDRDHRRYFYVNEQSGESQWEFPDGEEEMEES the abundance fitness was -0.064 ± 0.11. In the case of EINATPKGWSCHWDRDHRRYFYVNEQSGESQWEFPDGEEEDEES, the abundance fitness is reported as -0.28 ± 0.13. With EINATPKGWSCHWDRDHLRYFYVNEQSGESQWEFPDGEEEEEES the abundance fitness was 0.016 ± 0.089. Variant EINATPKGWSCHWDRDHPRYFYVNEQSGESQWEFPDGEEEEEES has an abundance fitness of -0.635 ± 0.15. Work on EINATPKGWSCHWDRDHRRYFYVNEQSRESQWEFPDGEEEEEES yielded an abundance fitness of -0.438 ± 0.079. EINATPKGWSCHWDRDHRRYFYVNEQSFESQWEFPDGEEEEEES showed an abundance fitness of -1.22 ± 0.23. EINATPKGWSCHWDRDHRRYFYVNEQSAESQWEFPDGEEEEEES showed an abundance fitness of -0.567 ± 0.076. EINATPKGWSCHWDRDHRRYFYVNEQSWESQWEFPDGEEEEEES showed an abundance fitness of -1.14 ± 0.12. Work on EINATPKGWSCHWDRDHRRYFYVNEQSGESQWEFPDIEEEEEES yielded an abundance fitness of -0.232 ± 0.14. Work on EINATPKGWSCHWDRDHRRYFYVNEQSGESQWEFPDDEEEEEES yielded an abundance fitness of -0.266 ± 0.18. EINATPKGWSCHWDRDHRRYFYVNEQSGESQWEFPDAEEEEEES showed an abundance fitness of -0.032 ± 0.067. In the case of EINATPKGWSCHWDRDHRRYFYVNEQSGESQWEFPDLEEEEEES, the abundance fitness is reported as -0.151 ± 0.071. Variant EINATPKGWSCHWDRDHRRYFYVNEQSGESQWEFPDHEEEEEES has an abundance fitness of -0.021 ± 0.12. EINATPKGWQCHWDRDHRRYFYVNEQSGESQWEFPDGEEEEEES gave an abundance fitness of -0.183 ± 0.15. In the case of EINATPKSWSCHWDRDHRRYFYVNEQSGESQWEFPDGEEEEEES, the abundance fitness is reported as -0.623 ± 0.13. EINATPKGWSCHWDRDHRRYFYVNEQSGESQWEFPDGEEEELES gave an abundance fitness of -0.073 ± 0.069. With EINATPKGWSCHWDRDHRRYFYVNEQSGESQWEFPDGEEEEDES the abundance fitness was 0.038 ± 0.084. EINATPKGWSCHWDRDHRRYFYVNEQSGESQWEFPDGEEEECES gave an abundance fitness of -0.023 ± 0.064. Variant EINATPFGWSCHWDRDHRRYFYVNEQSGESQWEFPDGEEEEEES has an abundance fitness of -0.303 ± 0.1. With KINATPKGWSCHWDRDHRRYFYVNEQSGESQWEFPDGEEEEEES the abundance fitness was 0.036 ± 0.12. With EINATPKGWSCHWDRDHRRYFYVNEQSGESQWEFPDGEETEEES the abundance fitness was 0.151 ± 0.1. In the case of EINATPKGWSCHWDRDHRRYFYVNEQSGESQWEFPDGEENEEES, the abundance fitness is reported as -0.057 ± 0.11. EINATPKGWSCHWDRDHRRYFYVNEQSGESQWEFPDGEEFEEES gave an abundance fitness of -0.144 ± 0.15. EINATPKGWSCHWDRDHRRYFYVNEQSGESQWEFPDGEEEEEEV gave an abundance fitness of 0.253 ± 0.16. In the case of EINATPKGWSCHWDRDHRRYFYVNEQSGESQWEFPDGEEEEEEH, the abundance fitness is reported as -0.013 ± 0.2. In the case of EINATPKGWSCHWDRDYRRYFYVNEQSGESQWEFPDGEEEEEES, the abundance fitness is reported as -0.156 ± 0.095. For EINATPKGWSCHWDRDDRRYFYVNEQSGESQWEFPDGEEEEEES, the abundance fitness was -0.201 ± 0.11. Work on EINATPKGWSCHWDRDRRRYFYVNEQSGESQWEFPDGEEEEEES yielded an abundance fitness of 0.046 ± 0.058. With EINATPKGWSCHWDRDKRRYFYVNEQSGESQWEFPDGEEEEEES the abundance fitness was 0.207 ± 0.1. With EINATPKGWSCHWDRDMRRYFYVNEQSGESQWEFPDGEEEEEES the abundance fitness was -0.235 ± 0.19. EINATPKGWSCHWDRDVRRYFYVNEQSGESQWEFPDGEEEEEES showed an abundance fitness of -0.208 ± 0.086. In the case of EINATPKGWSCHWDRDHRVYFYVNEQSGESQWEFPDGEEEEEES, the abundance fitness is reported as -0.491 ± 0.077. EINATPKGWSCHWDRDHRKYFYVNEQSGESQWEFPDGEEEEEES gave an abundance fitness of -0.058 ± 0.088. In the case of EINATPKGWSCHWDRDHRRYFYVNEQSGESQWEFPHGEEEEEES, the abundance fitness is reported as -0.087 ± 0.083. In the case of EINATPKGWSCHWDRDHRRYFYVNEQSGESQWEFPRGEEEEEES, the abundance fitness is reported as -0.012 ± 0.062. With EINATPKGWSCHWDRDHRRYFYVNEQSGESQWEFPPGEEEEEES the abundance fitness was -0.025 ± 0.071. In the case of EINATPKGWSCHWDRDHRRYFYVNEQSGESQWEHPDGEEEEEES, the abundance fitness is reported as -0.011 ± 0.11. EINATPKGWSCHWDRDHRRYFYVNEQSGESQWEQPDGEEEEEES showed an abundance fitness of 0.015 ± 0.089. Work on EINATPKGWSCHWDRDHRRYFYVNEQSGESQWELPDGEEEEEES yielded an abundance fitness of 0.015 ± 0.061. With EINATPKGWSCHWDRDHRRYFYVNEQSGESQWEWPDGEEEEEES the abundance fitness was -0.13 ± 0.07. EINATPKGWSCHWDRRHRRYFYVNEQSGESQWEFPDGEEEEEES gave an abundance fitness of -0.274 ± 0.059. For EINATPKGWSCHWDRTHRRYFYVNEQSGESQWEFPDGEEEEEES, the abundance fitness was -0.064 ± 0.14. In the case of EINATPKGVSCHWDRDHRRYFYVNEQSGESQWEFPDGEEEEEES, the abundance fitness is reported as -0.629 ± 0.1. Variant EINATPKGKSCHWDRDHRRYFYVNEQSGESQWEFPDGEEEEEES has an abundance fitness of -0.619 ± 0.2. Variant EINATPKGMSCHWDRDHRRYFYVNEQSGESQWEFPDGEEEEEES has an abundance fitness of -0.591 ± 0.12. Variant EINATPKGASCHWDRDHRRYFYVNEQSGESQWEFPDGEEEEEES has an abundance fitness of -0.568 ± 0.099. Work on EINATPKGSSCHWDRDHRRYFYVNEQSGESQWEFPDGEEEEEES yielded an abundance fitness of -0.368 ± 0.074. Work on EINATPKGWSCHWDMDHRRYFYVNEQSGESQWEFPDGEEEEEES yielded an abundance fitness of -0.18 ± 0.11.
